Laboratory results from patent US20190077844A1 (published 2019).

Columns and labels:
[1] = target: T1, Human glypican-3 on cells (Huh7, Hep3B, H446, HepG2; Hep3B xenograft tissue) (UniProt P51654 25-554); experiment: flow cytometry; H446 cells
[2] = target: T1, Human glypican-3 on cells (Huh7, Hep3B, …); experiment: flow cytometry; Hep3B cells

T1 sequence (P51654 25-554): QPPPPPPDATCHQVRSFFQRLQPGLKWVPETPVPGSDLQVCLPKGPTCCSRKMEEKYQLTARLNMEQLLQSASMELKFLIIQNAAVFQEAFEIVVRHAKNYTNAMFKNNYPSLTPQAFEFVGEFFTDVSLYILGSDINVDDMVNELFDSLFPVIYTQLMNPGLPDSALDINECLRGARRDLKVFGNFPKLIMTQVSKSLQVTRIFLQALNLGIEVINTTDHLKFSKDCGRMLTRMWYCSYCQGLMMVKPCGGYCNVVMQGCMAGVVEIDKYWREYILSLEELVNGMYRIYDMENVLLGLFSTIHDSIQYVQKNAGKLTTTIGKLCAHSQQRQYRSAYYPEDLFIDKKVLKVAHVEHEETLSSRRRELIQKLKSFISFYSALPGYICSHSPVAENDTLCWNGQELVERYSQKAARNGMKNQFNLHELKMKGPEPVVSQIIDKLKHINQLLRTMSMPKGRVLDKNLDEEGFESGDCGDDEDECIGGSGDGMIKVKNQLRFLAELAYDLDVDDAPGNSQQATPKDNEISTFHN

Binder	EC50 [1] [nM]	EC50 [2] [nM]
ADX_6077_F02 tubulysin analog drug conjugate DAR1 (designed binder, tubulysin analog-linker (formula IV) on the cysteine of the C-terminal PC via maleimide) MGVSDVPRDLEVVAATPTSLLISWSDDYHAHRYYRITYGETGGNSPVQEFTVPGEHVTATISGLKPGVDYTITVYAVTYDGEKAATDWSISINYRTPCHHHHHH	0.386	0.664
ADX_6912_G02 tubulysin analog drug conjugate DAR2 (designed binder, tubulysin analog-linker (formula IV) on each of the two cysteines of the C-terminal PCPPPPPC) MGVSDVPRDLEVVAATPTSLLISWSDDYHAHRYYRITYGETGGNSPVQEFTVPGEHVTATISGLKPGVDYTITVYAVTYDGEKAATDWSISINYRTPCPPPPPCHHHHHH	0.573	0.537
